Data published in patent publication US20050142135A1, “Agents and methods for modulating interactions between gonadotropin hormones and receptors” (University of Kentucky Research Foundation, priority 2003, published 2005).
Each block holds one substance with its values, some of them ahead of it.

Assays:
LHR^V574A (human) [1] = target: LHR^V574A (human) (UniProt P22888); assay: 125I-hCG displacement / Scatchard; conditions: ligand
LHR^K583A (human) [2] = target: LHR^K583A (human) (UniProt P22888); assay: 125I-hCG displacement / Scatchard; conditions: ligand
LHR^S582A (human) [3] = target: LHR^S582A (human) (UniProt P22888); assay: 125I-hCG displacement / Scatchard; conditions: ligand
[4] = target: LHR T^580A mutant (human) (UniProt P22888); assay: 125I-hCG displacement / Scatchard; conditions: ligand
[5] = target: LHR K^573A mutant (human) (UniProt P22888); assay: 125I-hCG displacement / Scatchard; conditions: ligand
[6] = target: LHR N^581A mutant (human) (UniProt P22888); assay: 125I-hCG displacement / Scatchard; conditions: ligand
[7] = target: LHR P^575A mutant (human) (UniProt P22888); assay: 125I-hCG displacement / Scatchard; conditions: ligand
[8] = target: LHR V^579A mutant (human) (UniProt P22888); assay: 125I-hCG displacement / Scatchard; conditions: ligand
[9] = target: LHR T^578A mutant (human) (UniProt P22888); assay: 125I-hCG displacement / Scatchard; conditions: ligand
[10] = target: LHR L^576A mutant (human) (UniProt P22888); assay: 125I-hCG displacement / Scatchard; conditions: ligand
[11] = target: LHR I^577A mutant (human) (UniProt P22888); assay: 125I-hCG displacement / Scatchard; conditions: ligand
LHR^K583A (human) [12] = target: LHR^K583A (human) (UniProt P22888); assay: 125I-hCG competition binding on HEK293 cells, Scatchard
LHR^V574A (human) [13] = target: LHR^V574A (human) (UniProt P22888); assay: cell-based or functional assay
LHR^S582A (human) [14] = target: LHR^S582A (human) (UniProt P22888); assay: cell-based or functional assay
human FSH (human) = human FSH (human) (UniProt P01215); assay: photoaffinity labeling, SDS-PAGE autoradiograph

LHR^S582A (human), sequence (P22888 27-699, stated change not applied): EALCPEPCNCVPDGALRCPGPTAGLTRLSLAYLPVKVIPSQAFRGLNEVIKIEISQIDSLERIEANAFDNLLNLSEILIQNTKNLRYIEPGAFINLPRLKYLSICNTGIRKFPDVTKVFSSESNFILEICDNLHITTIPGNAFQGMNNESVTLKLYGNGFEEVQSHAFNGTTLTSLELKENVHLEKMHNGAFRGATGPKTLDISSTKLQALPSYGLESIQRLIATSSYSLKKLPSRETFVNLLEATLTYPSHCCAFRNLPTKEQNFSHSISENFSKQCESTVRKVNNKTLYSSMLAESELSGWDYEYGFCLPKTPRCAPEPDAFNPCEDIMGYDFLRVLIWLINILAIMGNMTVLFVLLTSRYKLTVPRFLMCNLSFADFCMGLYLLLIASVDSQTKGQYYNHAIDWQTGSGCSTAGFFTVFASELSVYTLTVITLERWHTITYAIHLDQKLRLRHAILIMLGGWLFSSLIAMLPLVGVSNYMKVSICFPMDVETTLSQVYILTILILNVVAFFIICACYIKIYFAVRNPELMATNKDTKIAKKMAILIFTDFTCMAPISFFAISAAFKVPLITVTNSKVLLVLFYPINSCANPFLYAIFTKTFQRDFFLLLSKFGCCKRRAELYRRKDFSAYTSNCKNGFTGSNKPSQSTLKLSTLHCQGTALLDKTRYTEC
LHR^V574A (human), sequence (P22888 27-699, stated change not applied): as above
LHR^K583A (human), sequence (P22888 27-699, stated change not applied): as above
LHR T^580A mutant (human), sequence (P22888 other isoform, or with tags, fused parts or gaps mutant): as the sequence (P22888 27-699, stated change not applied) above, with T576A counted along it
LHR L^576A mutant (human), sequence (P22888 27-699, change not shown): as the sequence (P22888 27-699, stated change not applied) above
LHR I^577A mutant (human), sequence (P22888 27-699, stated change not applied): as above
LHR T^578A mutant (human), sequence (P22888 27-699, change not shown): as the sequence (P22888 27-699, stated change not applied) above
LHR N^581A mutant (human), sequence (P22888 27-699, change not shown): as the sequence (P22888 27-699, stated change not applied) above
LHR K^573A mutant (human), sequence (P22888 27-699, change not shown): as the sequence (P22888 27-699, stated change not applied) above
LHR P^575A mutant (human), sequence (P22888 27-699, change not shown): as the sequence (P22888 27-699, stated change not applied) above
LHR V^579A mutant (human), sequence (P22888 27-699, change not shown): as the sequence (P22888 27-699, stated change not applied) above

- Kd (LHR^V574A (human) [1]): 240 pM
- Kd (LHR^K583A (human) [2]): 195 pM
- Kd (LHR^S582A (human) [3]): 942 pM
- Kd [4]: 623 pM
- Kd [5]: 348 pM
- Kd [6]: 350 pM
- Kd [7]: 277 pM
- Kd [8]: 985 pM
- Kd [9]: 299 pM
- Kd [10]: 430 pM
- Kd [11]: 746 pM
Substance: hCG (from UniProt P01215 25-116; P0DN86 21-165)

- fold improvement of binding affinity over wild type (LHR^K583A (human) [12]): 2 fold
- IP1 (cpm) (LHR^V574A (human) [13]): 2110 cpm
- IP1 maximum level, mutant/wild type (LHR^V574A (human) [13]): 0.15
- IP2 (cpm) (LHR^V574A (human) [13]): 180 cpm
- IP2 maximum level, mutant/wild type (LHR^V574A (human) [13]): 0.25
- IP3 (cpm) (LHR^V574A (human) [13]): 80 cpm
- IP3 maximum level, mutant/wild type (LHR^V574A (human) [13]): 0.39
- IPt (cpm) (LHR^V574A (human) [13]): 2230 cpm
- IPt maximum level, mutant/wild type (LHR^V574A (human) [13]): 0.15
- IP1 (cpm) (LHR^S582A (human) [14]): 15100 cpm
- IP1 maximum level, mutant/wild type (LHR^S582A (human) [14]): 1.09
- IP2 (cpm) (LHR^S582A (human) [14]): 900 cpm
- IP2 maximum level, mutant/wild type (LHR^S582A (human) [14]): 1.29
- IP3 (cpm) (LHR^S582A (human) [14]): 386 cpm
- IP3 maximum level, mutant/wild type (LHR^S582A (human) [14]): 1.38
- IPt (cpm) (LHR^S582A (human) [14]): 16200 cpm
- IPt maximum level, mutant/wild type (LHR^S582A (human) [14]): 1.11
Substance: hCG (from UniProt P01215 25-116; P0DN86 21-165) (ligand)

- percent of FSH labeled (human FSH (human)): > 50%
Substance: ^125I-FSHR^9-40F13Bpa (peptide)
